{"source": "paper doi:10.1101/2024.06.26.600905", "about": "(bioRxiv, 2024)", "note": "Where no end group is shown, it is not given here. [ ]: non-standard residue; d: D form. pY = N[C@@H](Cc1ccc(OP(=O)(O)O)cc1)C(=O)O; TOTD membrane = not defined here; pS = N[C@@H](COP(=O)(O)O)C(=O)O", "data": [{"molecular_target": "His6-SPAK CCT (mouse SPAK 459-556) (mouse) (UniProt Q9Z1W9)", "assay": "fluorescence polarisation", "units": {"fold decrease in affinity relative to wild type": "fold", "Ki": "µM"}, "values": [{"molecule": "hWNK1 1253-1265 R1257A peptide …", "fold decrease in affinity relative to wild type": 3.1}, {"molecule": "hWNK4 1012-1024 wild type peptide …", "Ki": 7.2}, {"molecule": "SAGHAFIVSPVPE", "note": "[hWNK1 1253-1265 peptide, arginines replaced with histidine-alanine]", "fold decrease in affinity relative to wild type": 11}, {"molecule": "SAGHHFIVSPVPE", "note": "[hWNK1 1253-1265 peptide, arginines replaced with histidine-histidine]", "fold decrease in affinity relative to wild type": 7}, {"molecule": "SAGKKFIVSPVPE", "note": "[hWNK1 1253-1265 peptide, arginines replaced with lysine-lysine]", "Ki": 4.2}, {"molecule": "SAGARFIVSPVPE", "note": "[hWNK1 1253-1265 peptide, first arginine of RRF to alanine]", "fold decrease in affinity relative to wild type": 1.5}]}, {"molecular_target": "NH3+-NLVGRF-[DAP-FAM]-VSPVPE-COO- fluorescent probe peptide (human)", "assay": "fluorescence polarisation", "units": {"Kd": "µM", "fold decrease in affinity relative to wild type": "fold"}, "values": [{"molecule": "His6-SPAK CCT (mouse SPAK 459-556) (from UniProt Q9Z1W9 459-556) (domain or fragment)", "Kd": 0.67}, {"molecule": "His6-OSR1 CCT (human OSR1 433-527) (from UniProt O95747 433-527) (domain or fragment)", "Kd": 1.5}, {"molecule": "purified SPAK CCT domain D477Q (domain or fragment)", "fold decrease in affinity relative to wild type": 50}]}, {"molecular_target": "His6-SPAK CCT (mouse SPAK 459-556) (mouse) (UniProt Q9Z1W9)", "assay": "fluorescence polarisation", "remark": "another data set of the same source", "units": {"Ki": "µM", "fold decrease in affinity relative to wild type": "fold"}, "values": [{"molecule": "H-SAGRRFIVSPVPE-OH", "note": "[hWNK1 1253-1265 wild type peptide NH3+-…-COO-]", "Ki": 2.5}, {"molecule": "SAGRRFIV[pS]PVPE", "note": "[hWNK1 1253-1265 peptide phosphorylated on serine at the +3 position]", "fold decrease in affinity relative to wild type": 2.5}]}, {"molecular_target": "T1, His6-OSR1 CCT (human OSR1 433-527) (human, UniProt O95747 433-527)", "T1 sequence (O95747 433-527)": "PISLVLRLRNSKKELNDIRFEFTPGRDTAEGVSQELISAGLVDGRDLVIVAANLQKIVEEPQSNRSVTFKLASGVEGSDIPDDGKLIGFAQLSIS", "assay": "peptide or protein array", "values": [{"molecule": "Ac-QLVGRFQVTSSKE-{TOTD membrane} (reading uncertain)", "note": "[hWNK4 1012-1024 wild type peptide QLVGRFQVTSSKE on the peptide array membrane]", "binding result": "binds"}]}, {"molecular_target": "T1, His6-OSR1 CCT (human OSR1 433-527)", "assay": "fluorescence polarisation", "units": {"fold decrease in affinity relative to wild type": "fold", "Ki": "µM"}, "values": [{"molecule": "SAGRRFIV[pS]PVPE", "note": "[hWNK1 1253-1265 peptide phosphorylated on serine at the +3 position]", "fold decrease in affinity relative to wild type": "~2.5"}, {"molecule": "H-SAGRRFIVSPVPE-OH", "note": "[hWNK1 1253-1265 wild type peptide NH3+-SAGRRFIVSPVPE-COO-]", "Ki": 5.1}, {"molecule": "SAGRAFIVSPVPE", "note": "[hWNK1 1253-1265 R1257A peptide SAGRAFIVSPVPE]", "fold decrease in affinity relative to wild type": "~3.1"}, {"molecule": "SAAARFIVSPVPE", "note": "[hWNK1 1253-1265 peptide, -3 glycine and -2 arginine to alanine-alanine]", "binding result": "binds"}, {"molecule": "SAVARFIVSPVPE", "note": "[hWNK1 1253-1265 peptide, -3 glycine and -2 arginine to valine-alanine]", "binding result": "binds"}, {"molecule": "SAGAHFIVSPVPE", "note": "[hWNK1 1253-1265 peptide, arginines replaced with alanine-histidine]", "binding result": "binds"}, {"molecule": "SAGAKFIVSPVPE", "note": "[hWNK1 1253-1265 peptide, arginines replaced with alanine-lysine]", "binding result": "binds"}, {"molecule": "SAGHAFIVSPVPE", "note": "[hWNK1 1253-1265 peptide, arginines replaced with histidine-alanine]", "fold decrease in affinity relative to wild type": 11}, {"molecule": "SAGHHFIVSPVPE", "note": "[hWNK1 1253-1265 peptide, arginines replaced with histidine-histidine]", "fold decrease in affinity relative to wild type": "~7"}, {"molecule": "SAGKAFIVSPVPE", "note": "[hWNK1 1253-1265 peptide, arginines replaced with lysine-alanine]", "binding result": "binds"}, {"molecule": "SAGKKFIVSPVPE", "note": "[hWNK1 1253-1265 peptide, arginines replaced with lysine-lysine]", "Ki": 16.3}, {"molecule": "SAGARFIVSPVPE", "note": "[hWNK1 1253-1265 peptide, first arginine of RRF to alanine]", "fold decrease in affinity relative to wild type": "~1.5"}, {"molecule": "QLVGRFQVTSSKE", "note": "[hWNK4 1012-1024 wild type peptide QLVGRFQVTSSKE]", "Ki": 12.9}, {"molecule": "QLVGRFAVTSSKE", "note": "[hWNK4 1012-1024 peptide, glutamine to alanine at the +1 position]", "binding result": "binds"}, {"molecule": "QLVSRFQVTSSKE", "note": "[hWNK4 1012-1024 peptide, glycine to serine at the -2 position]", "binding result": "binds"}, {"molecule": "QLVGRFQVASSKE", "note": "[hWNK4 1012-1024 peptide, threonine to alanine at the +3 position]", "binding result": "binds"}, {"molecule": "QLVGRFQITSSKE", "note": "[hWNK4 1012-1024 peptide, valine to isoleucine at the +2 position]", "binding result": "binds"}, {"molecule": "QLVGRFQLTSSKE", "note": "[hWNK4 1012-1024 peptide, valine to leucine at the +2 position]", "binding result": "binds"}, {"molecule": "SAGRRFIVSAAPE", "note": "[hWNK1 1253-1265 peptide, proline and valine to alanines at +4/+5]", "binding result": "binds"}, {"molecule": "LRRRNFKVMIYQD", "note": "[Cavin1 146-158 motif peptide]", "binding result": "binds"}, {"molecule": "LRRRNFKVMI[pY]QD", "note": "[p-Tyr156 Cavin1 peptide (Cavin1 146-158)]", "binding result": "binds"}]}]}
